Measured values taken from paper PMC9021188 (Cell Discovery, 2022).

Columns and labels:
[1] = molecular target: RaTG13 RBD protein (Bat coronavirus RaTG13, UniProt A0ABF7PLN6); experiment: ELISA; settings: both partners purified
[2] = molecular target: SARS-CoV RBD protein (SARS-CoV, UniProt P59594); experiment: cell-based or functional assay

B1: GW01 (antibody, V domains shown)
VH: EVQLVESGGGVVQPGGSLRLSCAASGFRFDDHAMHWVRQAPGKGLEWVSVISGDGGSTYYADSVKGRFSISRDDSKNSLYLQMNSLRTEDTALYYCAKDRSYGPPDVFNYEYGMDVWGQGTTVTVSS
VL: not shown
notes: also called mAb GW01; antibody GW01
In the case of B1, the binding result [1] is reported as “binds” and the “IC50 of neutralisation of pseudotyped SARS-CoV on Huh-7 cells” value [2] is reported as 0.0193 µg/mL.
